The experiment addresses T1, Bcl-2 (mouse, UniProt P10417 1-236).
T1 construct: Endogenous protein from wild-type mouse heart homogenate
The experiment is described as follows: co-immunoprecipitation from WT mouse heart homogenate with anti-Hsp20 antibody, immunoblot with anti-Bcl-2. An excerpt: Mouse heart homogenates are immunoprecipitated with anti-Hsp20 (d) or anti-Bax antibodies (e). Proteins are separated on SDS-PAGE gels and probed with anti-Bax (d1) or anti-Hsp20 antibodies (e1). Then, membrane (d1) is stripped and re-probed with anti-Bcl-2(d2); subsequently, this membrane (d2) is re-stripped and re-probed with anti-Hsp20 (d3). Similarly, membrane (e1) is stripped and re-probed with anti-Bax antibodies (e2). […] Homogenates are obtained from pre-ischemic/reperfused (g and i) and post-ischemic/reperfused (h and j) WT and TG hearts that are subjected to occlusion of LAD artery for 30 minutes and reperfusion for 24 hours. Homogenates are extracted by use of a solubilization solution of 7 mol/L urea, 2 mol/L thiourea, 4% CHAPS, 20 mmol/L DTT, 20 mmol/L spermine, and 1 mmol/L PMSF. Extract is centrifuged (100 000 g, 1 hour, at 10° C.), and 500 μg from each preparation is separated by 2D electrophoresis, using isoelectric focusing strips (Immobiline Drystrips, 18 cm, pH 4 to 7). […]
Association of Hsp20 with Bax and Bcl-2 is studied using Dynabeads Protein G (Dynal Biotech) according to the manufacturer's instructions. […] Finally, the proteins are eluted off (using 0.1 mol/L citrate), and their identity is determined by immunoblotting.
In general terms: A western blot detects proteins with antibodies after separation by electrophoresis.

T1 sequence (P10417 whole entry): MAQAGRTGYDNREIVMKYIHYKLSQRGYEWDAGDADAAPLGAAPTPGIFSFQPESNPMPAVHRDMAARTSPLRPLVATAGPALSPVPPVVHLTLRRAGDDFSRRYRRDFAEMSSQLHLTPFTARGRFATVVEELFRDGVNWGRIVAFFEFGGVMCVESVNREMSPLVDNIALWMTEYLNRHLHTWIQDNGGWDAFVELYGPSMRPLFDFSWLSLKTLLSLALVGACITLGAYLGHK

B1: Heat-Shock Protein Hsp20 (other, mouse, UniProt Q5EBG6 1-162, looked up)
chain: MEIPVPVQPSWLRRASAPLPGFSAPGRLFDQRFGEGLLEAELASLCPAAIAPYYLRAPSVALPTAQVSTDSGYFSVLLDVKHFLPEEISVKVVDDHVEVHARHEERPDEHGFIAREFHRRYRLPPGVDPAAVTSALSPEGVLSIQATPASAQAQLPSPPAAK
notes: Endogenous protein from wild-type mouse heart homogenate, used in co-immunoprecipitation; also called mcHsp20
Regarding B1, the binding result is listed as “no binding”.

The values are drawn from US20130273143A1 (UNIVERSITY OF CINCINNATI, published 2013).
